Results reported in article PMC3278457.

How the values were obtained:
[1] = target: spinophilin, endogenous in mouse striatal TSF (mouse (endogenous in striatum)) (UniProt Q6R891); assay: co-IP; spinophilin immunoprecipitated with 4 µg goat spinophilin antibody from mouse striatal TSFs (WT or T286A-KI; PND21 or adult); immunoblot
[2] = target: spinophilin (GST fusion fragments) 1-300 (UniProt O35274); assay: GST pull-down from striatal extract; settings: reference: wild-type mice; sites T286
spinophilin (striatal) = spinophilin (striatal) (UniProt Q6R891); assay: co-IP with spinophilin antibody, striatal extract; settings: reference: wild-type mice; sites T286

Chain of UniProt Q6R891 (Q6R891 whole entry, the tested form may be a part): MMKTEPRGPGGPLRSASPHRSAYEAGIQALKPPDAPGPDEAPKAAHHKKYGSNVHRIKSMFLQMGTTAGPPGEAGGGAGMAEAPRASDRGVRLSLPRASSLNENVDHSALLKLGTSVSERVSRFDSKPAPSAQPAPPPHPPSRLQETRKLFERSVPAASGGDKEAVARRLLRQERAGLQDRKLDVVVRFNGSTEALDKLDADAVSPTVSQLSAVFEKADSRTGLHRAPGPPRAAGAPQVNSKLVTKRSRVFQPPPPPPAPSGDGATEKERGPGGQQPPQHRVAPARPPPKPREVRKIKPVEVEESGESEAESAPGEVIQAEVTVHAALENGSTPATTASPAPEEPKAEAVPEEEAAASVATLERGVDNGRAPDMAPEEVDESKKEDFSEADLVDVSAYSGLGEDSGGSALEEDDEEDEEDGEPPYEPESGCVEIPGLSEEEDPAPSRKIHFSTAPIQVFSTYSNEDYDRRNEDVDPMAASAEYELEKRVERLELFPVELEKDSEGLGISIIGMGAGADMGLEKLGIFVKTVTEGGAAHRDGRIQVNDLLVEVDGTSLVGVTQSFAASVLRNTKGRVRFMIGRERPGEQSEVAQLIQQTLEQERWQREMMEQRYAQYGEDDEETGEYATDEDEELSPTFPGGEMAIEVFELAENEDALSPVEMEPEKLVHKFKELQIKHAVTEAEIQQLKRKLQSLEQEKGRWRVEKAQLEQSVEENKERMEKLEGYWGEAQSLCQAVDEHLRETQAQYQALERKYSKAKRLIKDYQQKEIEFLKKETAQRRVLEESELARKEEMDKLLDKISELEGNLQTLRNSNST

Row | reduction of CaMKIIα in spinophilin immune complexes, T286A-KI against WT [1] [%] | binding against the reference [2] | other: reduction relative to wild type (spinophilin (striatal)) | Substance
1 | 50 |  |  | CaMKIIα T286A, endogenous in T286A-KI mouse striatum (from UniProt P11798 1-478) (enzyme)
2 |  | weaker | weaker | CaMKIIα (from UniProt P11798) T286A knock-in mice
